The test concerns the target Recombinant pseudopilin domain of Naegleria gruberi GspG1 (NgGspG1) lacking the N-terminal hydrophobic part (Naegleria gruberi). The experiment in a line: MST; Monolith NT.115; 10 nM protein labelled with Red-NHS dye NT-647, unlabelled protein titrated to 50 uM; 50 mM HEPES, 50 mM NaCl.

This note sets out measurements from article PMC8134430.

As for “Recombinant pseudopilin domain of Naegleria gruberi GspG1 (NgGspG1) lacking the N-terminal hydrophobic part (domain or fragment)”, the Kd (as a rule, the constant that tells how readily two partners part at equilibrium) came to 216 nM.
